{
  "source": "paper PMC10872772",
  "assay_in_all_cases": "FRET or BRET",
  "set-up_in_all_cases": "unit not given beside the values",
  "key": {"GST-LXRα LBD (human)": {"target": "T1, GST-LXRα LBD (human)", "T1 sequence (Q13133 whole entry, looked up)": "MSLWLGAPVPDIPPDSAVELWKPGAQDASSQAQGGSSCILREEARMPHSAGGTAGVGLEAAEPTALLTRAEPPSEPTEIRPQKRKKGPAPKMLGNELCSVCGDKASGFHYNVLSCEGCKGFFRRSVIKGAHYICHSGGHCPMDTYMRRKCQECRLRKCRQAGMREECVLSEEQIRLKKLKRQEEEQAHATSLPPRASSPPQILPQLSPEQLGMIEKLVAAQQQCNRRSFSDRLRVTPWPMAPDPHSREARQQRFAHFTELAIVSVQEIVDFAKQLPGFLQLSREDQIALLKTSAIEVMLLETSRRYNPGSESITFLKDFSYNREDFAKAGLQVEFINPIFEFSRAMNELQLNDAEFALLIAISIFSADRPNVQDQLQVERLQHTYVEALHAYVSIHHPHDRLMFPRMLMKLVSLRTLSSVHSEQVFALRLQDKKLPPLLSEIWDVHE"}, "GST-LXRβ LBD (human)": {"target": "T2, GST-LXRβ LBD (human)", "T2 sequence (P55055 whole entry, looked up)": "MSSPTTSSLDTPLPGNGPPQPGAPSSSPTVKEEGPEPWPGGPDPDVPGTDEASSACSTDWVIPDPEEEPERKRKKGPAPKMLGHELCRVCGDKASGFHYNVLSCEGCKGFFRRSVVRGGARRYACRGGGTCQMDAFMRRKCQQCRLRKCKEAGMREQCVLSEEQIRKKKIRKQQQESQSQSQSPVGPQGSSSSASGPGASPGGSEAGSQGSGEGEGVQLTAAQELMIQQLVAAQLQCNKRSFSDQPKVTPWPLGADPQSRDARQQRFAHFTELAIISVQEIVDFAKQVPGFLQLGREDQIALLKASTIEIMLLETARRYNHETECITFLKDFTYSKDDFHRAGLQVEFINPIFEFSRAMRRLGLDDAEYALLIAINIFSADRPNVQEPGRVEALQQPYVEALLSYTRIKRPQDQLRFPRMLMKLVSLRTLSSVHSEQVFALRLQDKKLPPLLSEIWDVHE"}, "[1]": {"target": "T3, GST-PXR LBD protein (human)", "T3 sequence (O75469 whole entry, species assumed, looked up)": "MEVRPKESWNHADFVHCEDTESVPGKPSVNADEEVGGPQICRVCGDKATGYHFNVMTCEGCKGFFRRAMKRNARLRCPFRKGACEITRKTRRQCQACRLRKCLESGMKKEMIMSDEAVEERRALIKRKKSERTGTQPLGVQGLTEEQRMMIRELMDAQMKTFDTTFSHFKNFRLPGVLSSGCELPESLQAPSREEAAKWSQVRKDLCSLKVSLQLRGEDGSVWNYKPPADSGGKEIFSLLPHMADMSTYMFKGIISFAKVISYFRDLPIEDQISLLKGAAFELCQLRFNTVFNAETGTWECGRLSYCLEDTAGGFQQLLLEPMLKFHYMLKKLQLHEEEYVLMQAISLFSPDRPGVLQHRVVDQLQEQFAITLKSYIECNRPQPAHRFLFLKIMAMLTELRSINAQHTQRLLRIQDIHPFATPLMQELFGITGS"}},
  "data": [
    {"binder": "{FAM-(PEG)5}-CPSSHSSLTERHKILHRLLQEGSPS-NH2", "note": "[FAM-SRC1-B peptide]", "values": [
      {"measurement": "AUC of SRC-1 recruitment (TR-FRET) with SJPYT-299", "setting": "GST-LXRα LBD (human)", "result": 67.1},
      {"measurement": "AUC of SRC-1 recruitment (TR-FRET) with SJPYT-300", "setting": "GST-LXRα LBD (human)", "result": 80.2},
      {"measurement": "AUC of SRC-1 recruitment (TR-FRET) with SJPYT-301", "setting": "GST-LXRα LBD (human)", "result": 95.1},
      {"measurement": "AUC of SRC-1 recruitment (TR-FRET) with SJPYT-302", "setting": "GST-LXRα LBD (human)", "result": 108},
      {"measurement": "AUC of SRC-1 recruitment (TR-FRET) with SJPYT-303", "setting": "GST-LXRα LBD (human)", "result": 63.6},
      {"measurement": "AUC of SRC-1 recruitment (TR-FRET) with SJPYT-304", "setting": "GST-LXRα LBD (human)", "result": 59.5},
      {"measurement": "AUC of SRC-1 recruitment (TR-FRET) with SJPYT-305", "setting": "GST-LXRα LBD (human)", "result": 33.4},
      {"measurement": "AUC of SRC-1 recruitment (TR-FRET) with SJPYT-315", "setting": "GST-LXRα LBD (human)", "result": 62.3},
      {"measurement": "AUC of SRC-1 recruitment (TR-FRET) with SJPYT-316", "setting": "GST-LXRα LBD (human)", "result": 60.8},
      {"measurement": "AUC of SRC-1 recruitment (TR-FRET) with SJPYT-317", "setting": "GST-LXRα LBD (human)", "result": 27.2},
      {"measurement": "AUC of SRC-1 recruitment (TR-FRET) with T0901317", "setting": "GST-LXRα LBD (human)", "result": 122},
      {"measurement": "AUC of SRC-1 recruitment (TR-FRET) with SJPYT-299", "setting": "GST-LXRβ LBD (human)", "result": 133},
      {"measurement": "AUC of SRC-1 recruitment (TR-FRET) with SJPYT-300", "setting": "GST-LXRβ LBD (human)", "result": 136},
      {"measurement": "AUC of SRC-1 recruitment (TR-FRET) with SJPYT-301", "setting": "GST-LXRβ LBD (human)", "result": 154},
      {"measurement": "AUC of SRC-1 recruitment (TR-FRET) with SJPYT-302", "setting": "GST-LXRβ LBD (human)", "result": 149},
      {"measurement": "AUC of SRC-1 recruitment (TR-FRET) with SJPYT-303", "setting": "GST-LXRβ LBD (human)", "result": 120},
      {"measurement": "AUC of SRC-1 recruitment (TR-FRET) with SJPYT-304", "setting": "GST-LXRβ LBD (human)", "result": 125},
      {"measurement": "AUC of SRC-1 recruitment (TR-FRET) with SJPYT-305", "setting": "GST-LXRβ LBD (human)", "result": 76.1},
      {"measurement": "AUC of SRC-1 recruitment (TR-FRET) with SJPYT-315", "setting": "GST-LXRβ LBD (human)", "result": 117},
      {"measurement": "AUC of SRC-1 recruitment (TR-FRET) with SJPYT-316", "setting": "GST-LXRβ LBD (human)", "result": 144},
      {"measurement": "AUC of SRC-1 recruitment (TR-FRET) with SJPYT-317", "setting": "GST-LXRβ LBD (human)", "result": 71.3},
      {"measurement": "AUC of SRC-1 recruitment (TR-FRET) with SJPYT-318", "setting": "GST-LXRβ LBD (human)", "result": 21.8},
      {"measurement": "AUC of SRC-1 recruitment (TR-FRET) with SJPYT-319", "setting": "GST-LXRβ LBD (human)", "result": 21.5},
      {"measurement": "AUC of SRC-1 recruitment (TR-FRET) with T0901317", "setting": "GST-LXRβ LBD (human)", "result": 202},
      {"measurement": "AUC of SRC-1 recruitment (TR-FRET) with SJPYT-299", "setting": "[1]", "result": 102},
      {"measurement": "AUC of SRC-1 recruitment (TR-FRET) with SJPYT-300", "setting": "[1]", "result": 102},
      {"measurement": "AUC of SRC-1 recruitment (TR-FRET) with SJPYT-301", "setting": "[1]", "result": 129},
      {"measurement": "AUC of SRC-1 recruitment (TR-FRET) with SJPYT-302", "setting": "[1]", "result": 102},
      {"measurement": "AUC of SRC-1 recruitment (TR-FRET) with SJPYT-303", "setting": "[1]", "result": 134},
      {"measurement": "AUC of SRC-1 recruitment (TR-FRET) with SJPYT-304", "setting": "[1]", "result": 113},
      {"measurement": "AUC of SRC-1 recruitment (TR-FRET) with SJPYT-305", "setting": "[1]", "result": 161},
      {"measurement": "AUC of SRC-1 recruitment (TR-FRET) with SJPYT-315", "setting": "[1]", "result": 57.4},
      {"measurement": "AUC of SRC-1 recruitment (TR-FRET) with SJPYT-316", "setting": "[1]", "result": 38.7},
      {"measurement": "AUC of SRC-1 recruitment (TR-FRET) with SJPYT-317", "setting": "[1]", "result": 39.5},
      {"measurement": "AUC of SRC-1 recruitment (TR-FRET) with SJPYT-318", "setting": "[1]", "result": 47.1},
      {"measurement": "AUC of SRC-1 recruitment (TR-FRET) with SJPYT-319", "setting": "[1]", "result": 23.6},
      {"measurement": "AUC of SRC-1 recruitment (TR-FRET) with T0901317", "setting": "[1]", "result": 124}
    ]}
  ]
}
